Assay results published in the nanobody polyreactivity screen of Harvey et al. (2022).

Test: yeast display, Sf9 membrane polyspecificity reagent, FACS + sequencing; frameworks hold sequencing errors
Procedure, shortened: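 After 36–48 hours of galactose induction, yeast (Saccharomyces cerevisiae BJ5465) displaying a synthetic nanobody library were stained at 4 °C for 1 hour with 10% biotinylated, detergent-solubilized Sf9 membrane reagent. Streptavidin microbeads enriched the stained cells before FACS sorting into low and high (top ~1%) gates on anti-HA and streptavidin fluorescence. Each clone's polyreactivity label reflects its gate of origin.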

| Sequence | polyreactivity (PSR sort gate) |
| --- | --- |
| QVQLVESGGGLVQAGGSLRLSCAASGSIFKYYAMGWYRQAPGKERELVAAISRSGSNTYYADSVKGRFTISRDNPKNTVYLQMNSLKPEDTAVYYCAAVKGPERPTSPYDYWGQGTQVTVSS | high polyreactivity |
| QVQLVESGGGLVQAGGSLRLSCAASGFTFGPNTMGWYRQAAGKERELVATITWRGDGSTYYADSVKGRFTISRDNAKNTVYLQMNSLKPEDTAVYYCAAVIRPFSRRDMYYWGQGTQVTVSS | low polyreactivity |
| QVQLVESGGGLVQAGGSLRLSCAASGYIFGYYVMGWYRQAPGKERELVAAISGRGGRTYYADSVKGRFTISRDNAMNTVYLQMNSLKPEDTAVYYCAAADLPGTMYYWGQGTQVTVSS | high polyreactivity |
| QVHLVESGGGLVQAGGSLRLSCAPSGSIFRNYAMGWYRQAPGKESELVATISGRGGRTYYEDSVKGRFTISRDNAKNTVYLQMNSLKPEDTAVYYCAARGTLGKYSTASVYSGQGTQVTVSS | high polyreactivity |
| QVQLVESGGGLVQAGGSLRLSCAASGSIFFNYAMGWYRQAPGKERELVAAISSNGGRTYYADSVKGRFTISRDNAKNTVYLQMNSLKPEDTAVYYCAARVYDYPRFGYWGQGTQVTVSS | high polyreactivity |
| QVQLVESGGGLVQAGGSLRLSCAASGIIFTYYAMGWYRPAPGKERELVAAISSGGGSTYYADSVKGRFTISRDNAKITVYLQMNSLKPEDTAVYYCNADYYFVYTYLHDYWGQGTQVTVSS | low polyreactivity |
| QVQLVESGGGLVQAGGSLRLSCAASGRIFYRYAMGWYIQAPAKERELFAAITGSGGSTYYADSVKGRFTISRDNAKNTVYFQMNSLKPEDTAVYYCNAVERSAFRGVRFDYDYWGQGTQVTLSS | high polyreactivity |
| QVQLVESGGGLVQAGGSLRLSCAASGLTFEVYAMGWYRQAPGKERELVAAISSGGGSTYYADSVKGRFTISRDNGKNTVYLQMNSLKPEDTAVYYCNADALIAAYKYFPYTYRFNYWGQGTQVTVSS | low polyreactivity |
| QVQLVESGGGLVQAGGSHRLSCAASGLNFGDNTMGWYRQAPGKERELVAAISGDVITTYADSVKGRFTISRDNAKNTVYLQMNSLKPEDTAVYYCNAEVKRYYSGLPQYFAGLGYWGQGTQVTVSS | low polyreactivity |
| QVQLVESGGGLVQAGGSLRLSCAASGSILGTYAMGWYRQAPGKERELVARISRGGSTNYADSVKGRFTISRDNAKNTVYLQMNILKPEDTAVYYCAKRLYLPESWRYYYWGQGTQVTVSS | high polyreactivity |
| QVQLVESGGGLVQAGGSLRLSCAASGRTFPRYAMGWYRPAAGKVWELVAAISVRAGITYYADSVKGRFTISRDNAKNTVYFQMNSLKPEDTAVYYCAKDHWTTSYDEGDYWGQGTQETVSS | low polyreactivity |
| QVQLVESGGGLVQAGGSLRLSCAASGITFEKYAMGWYRQAPGKERELVAAITSSGGSTYYADSVKGRFTISRDNAKNTVYLQMNSLKPEDTAVYYCKARYYYADRTSGGYYYWGQGTQVTVSS | high polyreactivity |
| QVQLVESVGGLVQAGGSLRLSCAASGITFFGNAMGWYRQAPGKERELVASISNGDNTNYADSVKGRFTISRDNAKNTVYLQMNSLKPEDTAVYYCAAWLAYSSRYGYWGQGTQVSVSS | low polyreactivity |
| QVQLVESGGGLVQAGGSLRLSCAASGITFNYYAMGWYRQAPGKERELVATINRSGGTTYYADSVKGRITISRDNAKNTVYLQMNSLKPEDTAVYYCNARYTSRGRYHSGYDYWGQGTQVTVSS | high polyreactivity |
| QVQLVESGGGLVQAGGSLRLSCAASGLIFYYYAMGWYRQAPGKEREVVAAISSNGGSTYYADSVKGRFTISRDNAKNTVYLQMNSLKPEDTAVYYCAAGYAYYYWTPYYYWGQGTQVTVSS | high polyreactivity |
| QVQLVESGGGLVQAGGSLRLSCAASGLTLSGYAMGWYRQAPGKERELVAAISSTGGSTYYADSVKGRFTISRDNAKNTVYLQMNSLKPEDTAVYYCAKGYSPTRVRLRYPRYDTYNHWGQGTQVTVSS | high polyreactivity |
| QVQLVESGGGLVQAGGSLRLSCAASGLTFPQYAMGWYRQAPGKERELVAAISKTGGSTYYADSVKGRFTISRDNAKNTVYLQMNSLKPEDTAVYYCAAVESGDRGQRINYWGQGTQVTVAS | high polyreactivity |
| QVQLVESGGGLVQAGGSLRLSCAASGSTFRVNAMGWYRQEPGKEREFVDAITWSTGSTYYADSVKGRFTISRDYAMNTVYLQMNSLKPEDTAVYYCAAREQTYSQRGKKLYYFWGQGTQVTVST | high polyreactivity |
| QVQLQESGGGLVQAGGSLRLSCAASGSIFKVVDMGLYRQAPAKEREFVATIGEGGNTYYADSVKGRFTISRDNAKNTVYLQMNSLKPEDTAVYYCNVDIGVYAYESDYWGQGTQVTVSS | low polyreactivity |
| QVQLVESGGRLVQAGGSIRLSCAASGRIFGAYAMGWYRQAPGKERELVAAITQSGGSTFYADSVKGRFTISRDNAKNTVYLQMNSLKPEVTAVYYWGQGTQVTVSS | low polyreactivity |
| QVQLVESAGGLVQAGGSLRLSCAASGSNFGDYPLGWYRQAPGKERELVAAISVRGGSTYYADSVKGRFTISRDNAKITVYLQMKSLKPEDTAVYYCNKDLYRYPGYDYWGHGTQVTVSS | high polyreactivity |
| QVQLVESGGGLVQAGGSLRLSCAASGRTFRYYAMGWYRQAPGKERELVAAISYSGGSTYYADSVKGRFTISRDNAKNTVYLQMNSLKPEDTAVYYCAAGPWHYKYSLRGWGYYWGQGTQVTVSS | high polyreactivity |

| Sequence | polyreactivity (PSR sort gate) |
| --- | --- |
| QVQLVESGGGLVQAGCSLRLSCSASGRIYYAMGWYRQADGKERELVATITRSGGRTYYADSVKGRFTISRDNAKITVYLQINSLKPEDTAVYYCAKQFGRPYVGSNSYCLTYDSWGEGTQVTVSS | low polyreactivity |
| QVQHVESGGGLVQAGGSLRLSCAASGRTFVTNAKGWYRQAPGKERELVAAISSSGGSTYYADSVKGRFTISRDNAKNTVYLQMNSLKPEDTAVYYCATDRYVTPRLRFDYWGQGTQVTVSS | low polyreactivity |
| QVQLVESGGGLVQAGGSLRLSCAASGSIFRPYAMGWYRQAPGKEREFVAAITYGGGNTYYADSVKGRFTISRDNAKNTFYLQMNILKPEDTAVYYCNKLSRGFSPKYDYWGQGTQVTVSS | high polyreactivity |
| QVQLVESGGGLVQAGRSLRLSCAASGFTFQSYDMGWYRQAPGKDRELVAAISWSGASTYYADSVKGRFTISRDNAKNTVYLQMNSLKPEDTAVYYCAAGEPTWWGYANDYWGQGTQVTVST | high polyreactivity |
| QVQLVESGGGLVQAGGSLRLSCAASGHIFFINAMGWYRQAPGKERELVAAIDWSGGSTYYADSVKGRFTISRDNAKNTDYLQMNSLKPADTAVYYCAAELLWDYILYYYWGQGTQVTVSS | high polyreactivity |
| QVQLVESGGGLVQAGGSLRLSCAASGFIFNWYAMGWYRQAPGKERELVAAITSGGSTNYADSVKGRFTISRDNAKNTVYLQMNSLKTEDTAVYYCAARHWRRYGYWGQGTQVTVSS | high polyreactivity |
| QVQLVESGGGLVQAGGSLRLSCAASGSTFYKYAMGWYRPAPGKERELVATINISGGSTSYADSVKGRFTISRDNAKNTVYLQMNSLKPQDTAVYYSNADAFYLGHDYWGQGTEVTVSS | high polyreactivity |
| QVQLVETGGGLVQAGGSLRLSCAASGIIFREYAMGWYRQAPGKEMELVAAITRSGGSTNYADSVKGRFTISRDNAKNTVYLLMNSLKPEDTAVYYCASDYQRNDFRWYDYWGQGTLVTVSS | low polyreactivity |
| QVQLVESVGGLVQAGGSLRLSCAASGRIFGFSTMGWYRQARGKDRELVATISWSGSGTYYADSVKGRFTISRDNAYNTVYLQMNRLKPEDTAVYYCNADWYYFGYDYWGQGTQVTVST | low polyreactivity |
| QVQLVESGGGLVQAGGSLRLSCAASGRTLGLYAMGWYRQAPGKERELVAAITTSGGSTSYADSVKGRFTISRDNAKNTVYLQMNSLKPEDTAVYYCAARYLSYITGTSYYWGQGTQVTVSS | low polyreactivity |
| QVQLVESGGGLVQAGGSLRLSCAASGFIVSTKVMGWYRQAPGKERELVADINTGGSTSYADSVKGRFTNSRDNAKNTVYLQMNSLKPEDTAVYSCAAVLQYYYLSTDDPYDYWGQGTQVTVSS | low polyreactivity |
| QVQLQESGGGLVQAGGSLRLSCAASGTISVHASMGWYRQAPGKERELVAGITDGANTYYADSVKGRFTISRDNSKNTVYMQKNSLKPEDTAVYYCAAYYGTEVHFTYWGQGTQVTVSS | low polyreactivity |
| QVQLVESGGGLVQAGGSLRLSCAASGLIDSYYAMGWYRQAPGKERELVAVITSGGSTYYADSVKGRFTISRDNAKNTVYLQMNSLNPEDTAVYYCAARVRVSYNRYHGLYAVSRGDYWGQGTQVTVSS | high polyreactivity |
| QVQLVESGGGLVQAGGSLRLSCAASGRIFDGYAMGWYRQAPGKERELVAAISSRGGRTYYADSVKGRFTISRDNAKNTVYLQMNSLKPEDTAVYYCAADDPYGEGDYWGQGTQVTVSS | low polyreactivity |
| QVQLVESGGGLVQAGGSLRLSCAASGFIFYIYAMGWYRQAPGKERELVAAISWNGGSTYYADSVKGRFTISRDNAKNTVYLQMNSLKPEDTAVYYCATLARYRYGTGRFDYCGQGTQVTVSS | high polyreactivity |
| QVQHVESGGGLVQAGGSLRLSCAASGLIYAYYAMGWYRHAPGKERELVAAISRSGVSTYYADSVKGRFTISRDNAKNTVYLQMNSVKPEDTAVYYCAARWRSGFTSGDYWGQGTQVTVSS | low polyreactivity |
| QFQLVESGGGLVQAGGSLRLSCAASGSIFRGTAMGWYRQAPGKERELVAAINKSGGSTYYADSVKGRFTISRDNAKNTVYLQMNSLKPEDTAVYYCAARGYFWSSYKYDYWGQGTEVTVSS | high polyreactivity |
| QVQLVESGGGLVQAGGSLRLSCAASGSTFVSYDMGWYRQAPGKERELVATIRRGGSTYYADSVKGRFTISRDNAKNTVYLQMNSLKPEDTAVYYCAAQQYAKYGWYAYDYWGQGTQVTVSS | low polyreactivity |
| QVQLVESGGGLVQAGGSLRLSCAASGSISVSYMGWYRQAPGKERELVAAINWRGGSTYYADSVKGRFTISRDNAKNTVYLQMNSLKPEDTAVYYCAADYTVSYPYYEYYYWGQGTQVNVSS | high polyreactivity |
| QVQLVESGGGLVQAGGSLRLSCAASGFTFYYYAMGWYRQAPGKERELVARITSGGSTYYADSVKGRFTISRDNAKNTVYLQMISLKPEDTAVYYCNVDVSVEVAYWGQGTQVTVSS | low polyreactivity |
| QVQLVESRGGLVQAGGSLRLSCAASGLIFTVNAMGWYRQAPGKERELVAAISQSGGSTYYADSVKGRFTISRDNAKNTVYLQMNSLKPEDTAVYYCAAKSDPYRHDYWGQGTQVTVSS | low polyreactivity |
